Assay [1] has as its target M2345/WT IRSp53 heterodimer (human (from the printed UniProt entry)) (UniProt Q9UQB8). The assay can be described thus: co-IP; homo- and heterodimers of wild-type and M2345 IRSp53 (FLAG and STREP tags, single plasmid with IRES) from HEK293T cells; endogenous 14-3-3 detected by blot, relative to WT-IRSp53-FLAG/WT-IRSp53-STREP.
In assay [2] the target is WT/M2345 IRSp53 heterodimer (human (from the printed UniProt entry)) (UniProt Q9UQB8). Described as above.

This note sets out measurements from publication PMC6351565.

Sequence of endogenous 14-3-3 (all isoforms included) (P27348 whole entry, canonical isoform): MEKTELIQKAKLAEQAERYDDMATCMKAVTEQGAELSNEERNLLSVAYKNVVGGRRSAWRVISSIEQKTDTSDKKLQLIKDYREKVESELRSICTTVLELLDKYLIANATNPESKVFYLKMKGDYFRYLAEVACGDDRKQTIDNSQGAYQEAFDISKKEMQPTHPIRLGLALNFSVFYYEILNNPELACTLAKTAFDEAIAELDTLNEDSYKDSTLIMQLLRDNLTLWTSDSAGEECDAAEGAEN
Sequence of WT/M2345 IRSp53 heterodimer (human (Q9UQB8 other isoform, or with tags, fused parts or gaps T340A | T360A | S366A | 452SSST455 -> AAAA, chain 1 of 2): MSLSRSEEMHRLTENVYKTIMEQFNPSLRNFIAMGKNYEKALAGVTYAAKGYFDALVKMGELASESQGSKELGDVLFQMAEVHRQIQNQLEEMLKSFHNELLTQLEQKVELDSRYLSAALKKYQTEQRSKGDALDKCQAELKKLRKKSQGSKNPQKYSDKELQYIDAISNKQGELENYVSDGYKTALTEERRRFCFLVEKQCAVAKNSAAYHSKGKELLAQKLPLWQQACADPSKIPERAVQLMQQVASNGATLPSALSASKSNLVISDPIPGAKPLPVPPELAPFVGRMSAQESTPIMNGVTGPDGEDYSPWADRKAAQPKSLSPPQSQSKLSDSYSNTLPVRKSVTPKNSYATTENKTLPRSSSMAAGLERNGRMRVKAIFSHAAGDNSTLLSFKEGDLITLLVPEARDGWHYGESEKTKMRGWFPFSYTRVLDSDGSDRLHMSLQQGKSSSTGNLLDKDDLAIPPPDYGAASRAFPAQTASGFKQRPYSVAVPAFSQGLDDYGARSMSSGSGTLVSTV
Sequence of WT/M2345 IRSp53 heterodimer (human (Q9UQB8 other isoform, or with tags, fused parts or gaps, chain 2 of 2): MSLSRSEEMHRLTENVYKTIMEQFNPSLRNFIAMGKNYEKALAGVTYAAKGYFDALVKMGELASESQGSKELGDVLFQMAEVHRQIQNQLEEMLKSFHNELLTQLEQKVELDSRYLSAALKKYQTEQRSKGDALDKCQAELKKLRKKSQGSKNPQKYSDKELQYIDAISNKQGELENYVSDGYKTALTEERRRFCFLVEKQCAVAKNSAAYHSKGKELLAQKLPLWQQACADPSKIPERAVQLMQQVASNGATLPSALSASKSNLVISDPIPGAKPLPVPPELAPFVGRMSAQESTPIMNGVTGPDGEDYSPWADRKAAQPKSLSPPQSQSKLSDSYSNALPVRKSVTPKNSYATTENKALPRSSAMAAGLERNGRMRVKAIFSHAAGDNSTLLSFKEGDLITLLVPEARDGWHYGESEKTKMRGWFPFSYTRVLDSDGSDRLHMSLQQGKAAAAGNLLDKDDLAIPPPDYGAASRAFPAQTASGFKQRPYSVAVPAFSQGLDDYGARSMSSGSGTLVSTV

In the case of “endogenous 14-3-3 (all isoforms included) (from UniProt P27348 1-245) (natural protein)”, the percent of the amount that coimmunoprecipitates with WT/WT IRSp53 in assay [1] and in assay [2] was 50% throughout.
